Experiment [1] deals with T1, Fc-E-cadherin chimeric protein.
T1 construct: It was captured on immobilised protein A on a CM5 chip (about 3500 RU)
Kind of experiment: SPR (BIAcore X), Fc-E-cadherin captured on protein A, peptide as analyte, 3 mM CaCl2, fit to binding isotherm. On the procedure: (§1) The binding of representative peptide modulating agents to Fc-E-cadherin chimeric protein in either the presence (3 mM CaCl₂) or absence of calcium was assessed using a BIAcore X™ Biosensor (Pharmacia Ltd., Sweden). Protein A was immobilized on the flow cells of a CM 5 sensor chip using a standard amine coupling method. The surfaces were activated with a 7 min injection of NHS/EDC, followed by a 7 min injection of protein A in 10 mM acetate pH 5.0 at a concentration of 50 ug/mL and blocked with a 7 min injection of 8 M ethanolamine, pH 8.2. […] Next, Fc-E-cadherin was injected over the protein A surface to be captured on the sensor chip.
(§2) To test compound binding to these surfaces, candidate modulating agents were injected in a three-fold dilution series over the Fc-E-cadherin-coated surfaces using six concentrations and each concentration was repeated twice.
On the technique in general: SPR reads the build-up and loss of mass on a sensor chip optically.

Experiment [2] shares this target. Kind of experiment: SPR (BIAcore X), Fc-E-cadherin captured on protein A, peptide as analyte, 3 mM CaCl2, fit to binding isotherm; with Ca^++ (3 mM CaCl2). The method, then: as §1, §2
The target is the same in experiment [3]. Kind of experiment: SPR (BIAcore X), Fc-E-cadherin captured on protein A, peptide as analyte, no calcium, fit to binding isotherm. The method, then: as §1, §2

The record followed here is patent US20050129676A1 (ADHEREX TECHNOLOGIES, published 2005).

T1 sequence (P12830 155-709, change not shown): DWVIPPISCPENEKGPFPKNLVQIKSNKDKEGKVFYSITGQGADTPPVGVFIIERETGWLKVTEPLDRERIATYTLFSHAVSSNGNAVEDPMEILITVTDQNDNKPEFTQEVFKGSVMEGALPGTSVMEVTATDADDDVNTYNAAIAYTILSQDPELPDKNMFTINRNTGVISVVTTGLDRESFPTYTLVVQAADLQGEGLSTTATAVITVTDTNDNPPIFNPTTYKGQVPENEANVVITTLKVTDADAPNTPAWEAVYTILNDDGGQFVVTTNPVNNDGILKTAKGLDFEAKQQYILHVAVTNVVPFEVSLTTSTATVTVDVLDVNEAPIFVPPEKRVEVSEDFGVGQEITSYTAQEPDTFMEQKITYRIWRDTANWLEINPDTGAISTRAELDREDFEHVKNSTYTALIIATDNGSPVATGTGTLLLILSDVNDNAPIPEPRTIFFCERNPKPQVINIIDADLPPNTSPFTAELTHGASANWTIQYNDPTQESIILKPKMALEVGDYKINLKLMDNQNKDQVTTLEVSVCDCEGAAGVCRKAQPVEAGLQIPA

B1: H-DWVIPA-NH2 (peptide)
peptide: H-DWVIPA-NH2
notes: Linear synthetic peptide; analogue of H-DWVIPP-NH2
As to B1, in experiment [1], binding was put at a Kd of 59 µM.

B2: H-DWVAPP-NH2 (peptide)
peptide: H-DWVAPP-NH2
notes: as for B1
B2 registered a Kd in experiment [2] of 21 mM.

B3: H-DWVIAP-NH2 (peptide)
peptide: H-DWVIAP-NH2
notes: as for B1
B3 returned a Kd in experiment [1] of 17 µM.

B4: H-DWVIP-NH2 (peptide)
peptide: H-DWVIP-NH2
notes: Linear synthetic peptide
B4: the Kd in experiment [1] was 36.1 µM; in experiment [3], 66 µM.

B5: H-PWVIPP-NH2 (peptide)
peptide: H-PWVIPP-NH2
notes: as for B1
The molecule B5 displayed a Kd in experiment [1] of 543 µM.

B6: H-DWVIPP-NH2 (peptide)
peptide: H-DWVIPP-NH2
notes: Linear synthetic peptide; also called ADH254
B6: the dissociation constant Kd in experiment [1] came to 34 µM.

B7: H-AWVIPP-NH2 (peptide)
peptide: H-AWVIPP-NH2
notes: as for B1
As to B7, in experiment [1], binding was characterised by a dissociation constant (Kd) of 42 µM.

Broadly, the Kd is the equilibrium constant for the complex coming apart.
